Test results published in the RNAGym collection of RNA variant scans (doi:10.1021/acssynbio.7b00057).

B1: Pistol ribozyme (parent)
chain: GGGUCGUUGUUCCAUAAUCGCGUGGAUAUGGCACGCAAGUUUCUACCGGGCACCGUAAAUGUCCGACUGGAGCCGUUCGGGCGGCUAUAAACAGACCUCAGGCCCGAAGCGUGGCGGCACCUGCCGCCGGUGGUAAAAAAGAUCGGAAGAGCACACGUCU

Variants of: B1
Experiment: aptazyme ON/OFF ratio, guanine; higher = stronger switching; co-transcriptional cleavage with and without guanine

| Variant | aptazyme ON/OFF ratio |
| --- | --- |
| U7A U8A G9C U11C C12G C13G | 1.07 |
| U7A U8A G9C U11C C12G C13U | 1.07 |
| U7A U8A G9C U11A C12U C13A | 1.1 |
| U7A U8A G9C U11A C12U C13U | 1.2 |
| U7A U8A G9C U11A C12U C13G | 1.14 |
| U7A U8A G9C U10G U11A C12U C13A | 1.11 |
| U7A U8A G9C U10G U11A C12U C13U | 1.1 |
| U7A U8A G9C U10G U11A C12U C13G | 1.13 |
| U7A U8A G9U C12G | 1.45 |
| U7A U8A G9U C12A | 1.19 |
| U7A U8A G9U C12U | 1.32 |
| U7A U8A G9C U11A | 1.25 |
| U7A U8A G9C U11C | 1.05 |
| U7A U8A G9C U11G | 1.47 |
| U7A U8A G9C U10A C12G | 1.25 |
| U7A U8A G9C U10A C12U | 1.15 |
| U7A U8A G9U U10A U11A C12G C13A | 1.15 |
| U7A U8A G9U U10A U11A C12G C13G | 1.14 |
| U7A U8A G9U U10A U11A C12G C13U | 1.04 |
| U7A U8A G9C U10C U11A C12G C13U | 1.1 |
| U7A U8A G9C U10C U11A C12G C13A | 1.05 |
| U7A U8A G9C U10C U11A C12G C13G | 1.06 |
| U7A U8A G9C U10A U11G C12G | 1.19 |
| U7A U8A G9C U10A U11G C12U | 1.22 |

| Variant | aptazyme ON/OFF ratio |
| --- | --- |
| U7A U8A G9C U10A U11G C12A | 1.05 |
| U7A U8A G9C U10A C13A | 1.21 |
| U7A U8A G9C U10A C13U | 1.18 |
| U7A U8A G9C U10A C13G | 1.07 |
| U7A U8A G9C U11G C12A C13U | 1.23 |
| U7A U8A G9C U11G C12A C13A | 1.17 |
| U7A U8A G9C U11G C12A C13G | 1.22 |
| U7A U8A G9C U11A C13G | 1.06 |
| U7A U8A G9C U11A C13A | 1.21 |
| U7A U8A G9C U11A C13U | 1.17 |
| U7A U8A G9C U10C U11A C12A C13U | 1.06 |
| U7A U8A G9C U10C U11A C12A C13G | 1.03 |
| U7A U8A G9C U10C U11A C12A C13A | 1.02 |
| U7A U8A G9U U10C C12G C13G | 1.35 |
| U7A U8A G9U U10C C12G C13U | 1.4 |
| U7A U8A G9U U10C C12G C13A | 1.31 |
| U7A U8A G9C U10C C12A C13A | 1.04 |
| U7A U8A G9C U10C C12A C13U | 1.04 |
| U7A U8A G9C U10C C12A C13G | 1.04 |
| U7A U8A G9C U10G U11A C12G | 1.32 |
| U7A U8A G9C U10G U11A C12A | 1.29 |
| U7A U8A G9C U10G U11A C12U | 1.03 |
| U7A U8A G9C U10G U11A | 1.06 |
| U7A U8A G9C U10G U11G | 1.66 |

| Variant | aptazyme ON/OFF ratio |
| --- | --- |
| U7A U8A G9C U10G U11C | 1.1 |
| U7A U8A G9U U10A C12G C13U | 1.3 |
| U7A U8A G9U U10A C12G C13G | 1.18 |
| U7A U8A G9U U10A C12G C13A | 1.2 |
| U7A U8A G9C U10A U11A | 1.21 |
| U7A U8A G9C U10A U11G | 1.24 |
| U7A U8A G9C U10A U11C | 1.04 |
| U7A U8A G9U U10A | 1.25 |
| U7A U8A G9U U10C | 2.34 |
| U7A U8A G9C U10G C12U C13U | 1.32 |
| U7A U8A G9C U10G C12U C13A | 1.22 |
| U7A U8A G9C U10G C12U C13G | 1.19 |
| U7A U8A G9U U10A U11G C12A C13U | 1.18 |
| U7A U8A G9U U10A U11G C12A C13G | 1.12 |
| U7A U8A G9U U10A U11G C12A C13A | 1.07 |
| U7A U8A G9C U10C U11C C12A C13G | 1.01 |
| U7A U8A G9C U10C U11C C12A C13U | 1.02 |
| U7A U8A G9C U10C U11C C12A C13A | 1 |
| U7A U8A G9U C12U C13U | 1.22 |
| U7A U8A G9U C12U C13A | 1.34 |
| U7A U8A G9U C12U C13G | 1.16 |
| U7A U8A G9C U11C C12U | 1.09 |
| U7A U8A G9C U11C C12A | 1.07 |
| U7A U8A G9C U11C C12G | 1.1 |

| Variant | aptazyme ON/OFF ratio |
| --- | --- |
| U7A U8A G9U U10C C12G | 1.43 |
| U7A U8A G9U U10C C12A | 1.17 |
| U7A U8A G9U U10C C12U | 1.24 |
| U7A U8A G9U U10C C13G | 1.03 |
| U7A U8A G9U U10C C13U | 1.2 |
| U7A U8A G9U U10C C13A | 1.08 |
| U7A U8A G9C U10A U11G C13G | 1.11 |
| U7A U8A G9C U10A U11G C13U | 1.24 |
| U7A U8A G9C U10A U11G C13A | 1.17 |
| U7A U8A G9C U10C U11G C12G C13U | 1.08 |
| U7A U8A G9C U10C U11G C12G C13A | 1.1 |
| U7A U8A G9C U10C U11G C12G C13G | 1.08 |
| U7A U8A G9C U10G U11G C12G C13G | 1.13 |
| U7A U8A G9C U10G U11G C12G C13A | 1.2 |
| U7A U8A G9C U10G U11G C12G C13U | 1.21 |
| U7A U8A G9C U11A C12G C13G | 1.2 |
| U7A U8A G9C U11A C12G C13U | 1.21 |
| U7A U8A G9C U11A C12G C13A | 1.15 |
| U7A U8A G9C U10G C12G C13U | 1.22 |
| U7A U8A G9C U10G C12G C13A | 1.22 |
| U7A U8A G9C U10G C12G C13G | 1.11 |
| U7A U8A G9C U10A U11C C12G C13G | 1.14 |
| U7A U8A G9C U10A U11C C12G C13U | 1.27 |
| U7A U8A G9C U10A U11C C12G C13A | 1.18 |

| Variant | aptazyme ON/OFF ratio |
| --- | --- |
| U7A U8A G9C U10A U11A C12U | 1.19 |
| U7A U8A G9C U10A U11A C12G | 1.27 |
| U7A U8A G9C U10A U11A C12A | 1.13 |
| U7A U8A G9U U10A U11A C12U C13A | 1.2 |
| U7A U8A G9U U10A U11A C12U C13G | 1.22 |
| U7A U8A G9U U10A U11A C12U C13U | 1.22 |
| U7A U8A G9C U10C U11A C13G | 1.19 |
| U7A U8A G9C U10C U11A C13A | 1.14 |
| U7A U8A G9C U10C U11A C13U | 1.13 |
| U7A U8A G9C U10G U11A C12A C13G | 1.12 |
| U7A U8A G9C U10G U11A C12A C13U | 1.2 |
| U7A U8A G9C U10G U11A C12A C13A | 1.17 |
| U7A U8A G9U U10C C12U C13A | 1.19 |
| U7A U8A G9U U10C C12U C13U | 1.43 |
| U7A U8A G9U U10C C12U C13G | 1.15 |
| U7A U8A G9C U10G C12U | 1.41 |
| U7A U8A G9C U10G C12G | 1.33 |
| U7A U8A G9C U10G C12A | 1.1 |
| U7A U8A G9U U10A C13G | 1.08 |
| U7A U8A G9U U10A C13A | 1.43 |
| U7A U8A G9U U10A C13U | 1.24 |
| U7A U8A G9C U11G C12U C13A | 1.37 |
| U7A U8A G9C U11G C12U C13U | 1.09 |
| U7A U8A G9C U11G C12U C13G | 1.23 |

| Variant | aptazyme ON/OFF ratio |
| --- | --- |
| U7A U8A G9C U10C C13G | 1 |
| U7A U8A G9C U10C C13U | 1.12 |
| U7A U8A G9C U10C C13A | 1.04 |
| U7A U8A G9U C12A C13U | 1.52 |
| U7A U8A G9U C12A C13G | 1.25 |
| U7A U8A G9U C12A C13A | 1.25 |
| U7A U8A G9C U10G U11A C13G | 1.09 |
| U7A U8A G9C U10G U11A C13A | 1.04 |
| U7A U8A G9C U10G U11A C13U | 1.04 |
| U7A U8A G9C U10G | 2.69 |
| U7A U8A G9C U10C | 1.8 |
| U7A U8A G9C U10G U11G C12A C13U | 1.41 |
| U7A U8A G9C U10G U11G C12A C13G | 1.17 |
| U7A U8A G9C U10G U11G C12A C13A | 1.4 |
| U7A U8A G9C U10A U11A C12A C13G | 1.07 |
| U7A U8A G9C U10A U11A C12A C13U | 1.14 |
| U7A U8A G9C U10A U11A C12A C13A | 1.37 |
| U7A U8A G9C U11C C12U C13G | 1.11 |
| U7A U8A G9C U11C C12U C13U | 1.08 |
| U7A U8A G9C U11C C12U C13A | 1.13 |
| U7A U8A G9C U11A C12A C13U | 1.15 |
| U7A U8A G9C U11A C12A C13A | 1.08 |
| U7A U8A G9C U11A C12A C13G | 1.18 |
| U7A U8A G9U U10A U11G C12U C13A | 1.25 |

| Variant | aptazyme ON/OFF ratio |
| --- | --- |
| U7A U8A G9U U10A U11G C12U C13U | 1.27 |
| U7A U8A G9U U10A U11G C12U C13G | 1.15 |
| U7A U8A G9C U10C U11A C12U C13U | 1.09 |
| U7A U8A G9C U10C U11A C12U C13A | 1.03 |
| U7A U8A G9C U10C U11A C12U C13G | 1.1 |
| U7A U8A G9U U10A U11G C12G C13G | 1.23 |
| U7A U8A G9U U10A U11G C12G C13A | 1.23 |
| U7A U8A G9U U10A U11G C12G C13U | 1.36 |
| U7A U8A G9U U10A U11G C13A | 1.22 |
| U7A U8A G9U U10A U11G C13U | 1.19 |
| U7A U8A G9U U10A U11G C13G | 1.13 |
| U7A U8A G9U U10A U11C C13U | 1.01 |
| U7A U8A G9U U10A U11C C13A | 1.08 |
| U7A U8A G9U U10A U11C C13G | 1.1 |
| U7A U8A G9C U10A C12A C13A | 1.11 |
| U7A U8A G9C U10A C12A C13G | 1.16 |
| U7A U8A G9C U10A C12A C13U | 1.18 |
| U7A U8A G9C U11C C13U | 1.07 |
| U7A U8A G9C U11C C13G | 1.07 |
| U7A U8A G9C U11C C13A | 1.08 |
| U7A U8A G9C U10A U11C C12A C13G | 1.12 |
| U7A U8A G9C U10A U11C C12A C13U | 1.2 |
| U7A U8A G9C U10A U11C C12A C13A | 1.12 |
